Assay results: article PMC4119599 (Biochemistry, 2011)

How the values were obtained:
[1] = target: T1, mtMenB (Mycobacterium tuberculosis, UniProt P9WNP5); test: not stated; type: binding
[2] = target: T1, mtMenB; test: X-ray co-crystal structure, […] Å; type: binding; conditions: partial occupancy, weak density, acyl part not resolved; pH 8.0
[3] = target: ecMenB (Escherichia coli, UniProt P0ABU0); test: X-ray co-crystal structure, […] Å; type: binding; conditions: all six active sites of the hexamer; stable substrate analogue; pH 6.5
[4] = test system: CC(C)(COP(=O)(O)OP(=O)(O)OC[C@H]1O[C@@H](n2cnc3c(N)ncnc32)[C@H](O)[C@@H]1OP(=O)(O)O)[C@@H](O)C(=O)NCCC(=O)NCCSC(=O)CCC(=O)c1ccccc1C(=O)O; test: purified protein; type: biochemical, Escherichia coli; conditions: pH 7.0; 25.0 °C
[5] = test system: CC(C)(COP(=O)(O)OP(=O)(O)OC[C@H]1O[C@@H](n2cnc3c(N)ncnc32)[C@H](O)[C@@H]1OP(=O)(O)O)[C@@H](O)C(=O)NCCC(=O)NCCSC(=O)CCC(=O)c1ccccc1C(=O)O; test: purified protein; conditions: pH 7.0; 25.0 °C
[6] = test system: CC(C)(COP(=O)(O)OP(=O)(O)OC[C@H]1O[C@@H](n2cnc3c(N)ncnc32)[C@H](O)[C@@H]1OP(=O)(O)O)[C@@H](O)C(=O)NCCC(=O)NCCSC(=O)CCCc1ccccc1C(=O)O; test: purified protein; conditions: pH 7.0; 25.0 °C

T1 sequence (P9WNP5 whole entry): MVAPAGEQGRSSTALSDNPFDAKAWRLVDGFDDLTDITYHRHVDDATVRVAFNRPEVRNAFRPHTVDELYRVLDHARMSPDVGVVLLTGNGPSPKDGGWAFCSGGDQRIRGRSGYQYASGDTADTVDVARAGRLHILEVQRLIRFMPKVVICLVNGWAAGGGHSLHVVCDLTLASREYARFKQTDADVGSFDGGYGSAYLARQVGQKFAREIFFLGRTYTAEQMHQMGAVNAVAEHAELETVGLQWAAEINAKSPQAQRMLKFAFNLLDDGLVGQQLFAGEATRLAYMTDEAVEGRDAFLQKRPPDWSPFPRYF
Sequence of ecMenB (P0ABU0 whole entry): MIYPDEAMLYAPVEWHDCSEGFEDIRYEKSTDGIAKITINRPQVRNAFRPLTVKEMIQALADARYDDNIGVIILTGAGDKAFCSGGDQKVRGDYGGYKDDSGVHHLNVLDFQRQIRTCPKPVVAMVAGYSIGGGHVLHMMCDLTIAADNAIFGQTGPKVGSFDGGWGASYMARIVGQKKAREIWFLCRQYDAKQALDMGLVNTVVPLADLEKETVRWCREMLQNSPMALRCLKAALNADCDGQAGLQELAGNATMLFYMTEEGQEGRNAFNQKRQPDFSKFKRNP

Compound: COC(=O)c1ccccc1C(=O)CCC(=O)SCCNC(=O)CCNC(=O)[C@H](O)C(C)(C)COP(=O)(O)OP(=O)(O)OC[C@H]1O[C@@H](n2cnc3c(N)ncnc32)[C@H](O)[C@@H]1OP(=O)(O)O [OSB-CoA methyl ester]
- Kd [1]: 11.5 ± 1.2 µM

Compound: CC(C)(COP(=O)(O)OP(=O)(O)OC[C@H]1O[C@@H](n2cnc3c(N)ncnc32)[C@H](O)[C@@H]1OP(=O)(O)O)[C@@H](O)C(=O)NCCC(=O)NCCNC(=O)CCC(=O)c1ccccc1C(=O)O [OSB-NCoA]
- X-ray co-crystal structure, 2.25 Å [2]: Density for OSB-NCoA can be observed but is weak in chain C
- X-ray co-crystal structure, 2.00 Å [3]: In the structure of OSB-NCoA bound to ecMenB, the ligand can be observed in all six

Compound: (Escherichia coli K-12)
- Km [4]: 25.9 ± 3.3 µM

Compound: (Mycobacterium tuberculosis H37Rv)
- Km [5]: 22.4 ± 2.1 µM
- Km [6]: 106 ± 31 µM
- kcat/Km [6]: 2.4 ± 0.7 M⁻¹ s⁻¹
